{"source": "patent US9879306B2", "about": "“Luciferase biosensors for cAMP” (PROMEGA CORPORATION, priority 2008, dated 2018)", "molecules": {"B1": {"name": "L9-ILY: L9 background with Luc2.0 F369I, F518L and RIIβB F407Y; SEQ ID NO:82, 83 (protein)", "chain": "MPGAVGKVVPFIEAKVVDLDTGKTLGVNQRGELCVRGPMIMSGYVNNPEATNALIDKDGWLHSGDIAYWDEDEHFFIVDRLKSLIKYKGYQVAPAELESILLQHPNIFDAGVAGLPDDDAGELPAAVVVLEHGKTMTEKEIVDYVASQVTTAKKLRGGVVLVDEVPKGLTGKLDARKIREILIKAKKGSIAGCGDAGEGMYESFIESLPILKSLEFSARLKVVDVIGTKVYNDGEQIIAQGDSADSFYIIESGEVKITMKRKGKSEVEENGAVEIARCSRGQYFGELALVTNKPRAASAHAIGTVKCLAMDVQAFERLLGPCMEIMKRNIATYEEQLVALYGTNMDIVAKNIKKGPAPLYPLEDGTAGEQLHKAMKRYALVPGTIAFTDAHIEVDITYAEYFEMSVRLAEAMKRYGLNTNHRIVVCSENSLQFFMPVLGALFIGVAVAPANDIYNERELLNSMGISQPTVVFVSKKGLQKILNVQKKLPIIQKIIIMDSKTDYQGFQSMYTFVTSHLPPGFNEYDFVPESFDRDKTIALIMNSSGSTGLPKGVALPHRTACVRFSHARDPIFGNQIIPDTAILSVVPFHHGFGMFTTLGYLICGFRVVLMYRFEEELFLRSLQDYKIQSALLVPTLFSFFAKSTLIDKYDLSNLHEIASGGAPLSKEVGEAVAKRFHLPGIRQGYGLTETTSAILITPEGV"}, "B2": {"name": "L9-ILQY: L9 background with Luc2.0 F369I, F518L, K541Q and RIIβB F407Y; SEQ ID NO:80, 81 (protein)", "chain": "B1 chain with K184Q, I210F, Y248F, L359F"}, "B3": {"name": "L9-IL: L9 background with Luc2.0 F369I, F518L; SEQ ID NO:84, 85 (protein)", "chain": "B1 chain with I210F, Y248F, Y341F, L359F"}, "B4": {"name": "L9-ILQ: L9 background with Luc2.0 F369I, F518L, K541Q; SEQ ID NO:86, 87 (protein)", "chain": "B1 chain with K184Q, I210F, Y248F, Y341F, L359F"}, "B5": {"name": "L9-L: L9 background with Luc2.0 F518L; SEQ ID NO:94, 95 (protein)", "chain": "B1 chain with I12F, I210F, Y248F, Y341F, L359F"}, "B6": {"name": "L9-Q: L9 background with Luc2.0 K541Q; SEQ ID NO:96, 97 (protein)", "chain": "B1 chain with I12F, L161F, K184Q, I210F, Y248F, Y341F, L359F"}, "B7": {"name": "L9-IQ: L9 background with Luc2.0 F369I, K541Q; SEQ ID NO:74, 75 (protein)", "chain": "B1 chain with L161F, K184Q, I210F, Y248F, Y341F, L359F"}, "B8": {"name": "L9-I: L9 background with Luc2.0 F369I; SEQ ID NO:92, 93 (protein)", "chain": "B1 chain with L161F, I210F, Y248F, Y341F, L359F"}}, "key": {"GPR41 [1]": {"tested_on": "GPR41", "test": "Sodium proprionate CRC with biosensor variants in HEK293 cells stably expressing GPR41", "type": "cell-based", "conditions": "ratio of RLU of FSK treated well to untreated well", "method": "(§1) After 24 hours, the cells were transiently transfected with one of the cAMP biosensor variants (Tables 7A and 7B). After another 24 hours, the cells were equilibrated for 2 hours at room temperature using 5 mM EF-luc in CO2 independent media with 10% FBS. Prior to the addition of the compounds, luminescence was measured. The compounds (12× stock in CO2 independent media without FBS) were then added to the cells. For GPR41 expressing cells, sodium proprionate CRC was added. […] The cells were allowed to incubate another 30 minutes and luminescence read on a Varioskan Flash. EC50 values and fold responses were calculated for each of the clones with each of the compounds with or without FSK. In addition, variants […]7 (Example VIIB), 16A2 (Example VIIB) and GS358 were also screened."}, "GPR41 [2]": {"biological_target": "T1, GPR41 (Homo sapiens, UniProt O14843)", "T1 sequence (O14843 1-346)": "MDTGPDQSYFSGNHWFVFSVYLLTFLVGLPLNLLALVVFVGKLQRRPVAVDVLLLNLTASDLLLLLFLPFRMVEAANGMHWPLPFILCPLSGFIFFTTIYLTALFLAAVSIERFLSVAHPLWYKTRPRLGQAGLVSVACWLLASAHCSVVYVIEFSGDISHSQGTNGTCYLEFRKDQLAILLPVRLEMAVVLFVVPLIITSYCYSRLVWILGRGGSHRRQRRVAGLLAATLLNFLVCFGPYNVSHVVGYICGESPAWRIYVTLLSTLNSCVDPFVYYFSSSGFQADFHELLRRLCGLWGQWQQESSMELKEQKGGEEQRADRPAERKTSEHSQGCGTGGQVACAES", "test": "Sodium proprionate CRC with biosensor variants in HEK293 cells stably expressing GPR41", "type": "cell-based", "conditions": "for Fold Response Na proprionate + FSK(1 μM): with FSK 1 μM; for Fold Response Na proprionate: without FSK, ratio of induced to uninduced signal", "method": "as §1"}}, "note": "Numbering of substitutions follows the chain as printed. In names and notes the source's numbering stands.", "data": [{"molecule": "B1", "values": [{"measurement": "Fold Signal Change", "setting": "GPR41 [1]", "result": 161.2, "unit": "fold"}, {"measurement": "Fold Response Na proprionate + FSK(1 μM)", "setting": "GPR41 [2]", "result": 4.91, "unit": "fold"}, {"measurement": "Fold Response Na proprionate", "setting": "GPR41 [2]", "result": 3.34, "unit": "fold"}]}, {"molecule": "B2", "values": [{"measurement": "Fold Signal Change", "setting": "GPR41 [1]", "result": 152.7, "unit": "fold"}]}, {"molecule": "B3", "values": [{"measurement": "Fold Signal Change", "setting": "GPR41 [1]", "result": 96.7, "unit": "fold"}, {"measurement": "Fold Response Na proprionate + FSK(1 μM)", "setting": "GPR41 [2]", "result": 7.43, "unit": "fold"}, {"measurement": "Fold Response Na proprionate", "setting": "GPR41 [2]", "result": 3.67, "unit": "fold"}]}, {"molecule": "B4", "values": [{"measurement": "Fold Signal Change", "setting": "GPR41 [1]", "result": 140.4, "unit": "fold"}, {"measurement": "Fold Response Na proprionate + FSK(1 μM)", "setting": "GPR41 [2]", "result": 10.21, "unit": "fold"}, {"measurement": "Fold Response Na proprionate", "setting": "GPR41 [2]", "result": 4.13, "unit": "fold"}]}, {"molecule": "B5", "values": [{"measurement": "Fold Signal Change", "setting": "GPR41 [1]", "result": 72.2, "unit": "fold"}, {"measurement": "Fold Response Na proprionate + FSK(1 μM)", "setting": "GPR41 [2]", "result": 5.72, "unit": "fold"}, {"measurement": "Fold Response Na proprionate", "setting": "GPR41 [2]", "result": 3.04, "unit": "fold"}]}, {"molecule": "B6", "values": [{"measurement": "Fold Signal Change", "setting": "GPR41 [1]", "result": 42.0, "unit": "fold"}, {"measurement": "Fold Response Na proprionate + FSK(1 μM)", "setting": "GPR41 [2]", "result": 5.24, "unit": "fold"}, {"measurement": "Fold Response Na proprionate", "setting": "GPR41 [2]", "result": 2.57, "unit": "fold"}]}, {"molecule": "B7", "values": [{"measurement": "Fold Signal Change", "setting": "GPR41 [1]", "result": 64.0, "unit": "fold"}, {"measurement": "Fold Response Na proprionate + FSK(1 μM)", "setting": "GPR41 [2]", "result": 5.17, "unit": "fold"}, {"measurement": "Fold Response Na proprionate", "setting": "GPR41 [2]", "result": 3.41, "unit": "fold"}]}, {"molecule": "B8", "values": [{"measurement": "Fold Signal Change", "setting": "GPR41 [1]", "result": 83.5, "unit": "fold"}, {"measurement": "Fold Response Na proprionate + FSK(1 μM)", "setting": "GPR41 [2]", "result": 3.83, "unit": "fold"}, {"measurement": "Fold Response Na proprionate", "setting": "GPR41 [2]", "result": 3.61, "unit": "fold"}]}]}
